According to patent US6905818 (MAX PLANCK GESELLSCHAFT ZUR FORDERUNGDER WISSENSCHAFTEN, dated 2005):

Target: T1, LexA protein expressed from pBTM117c (UniProt P0A7C2 1-202)
T1 construct: range 1-220; also called strain x1a
T1 sequence (looked up): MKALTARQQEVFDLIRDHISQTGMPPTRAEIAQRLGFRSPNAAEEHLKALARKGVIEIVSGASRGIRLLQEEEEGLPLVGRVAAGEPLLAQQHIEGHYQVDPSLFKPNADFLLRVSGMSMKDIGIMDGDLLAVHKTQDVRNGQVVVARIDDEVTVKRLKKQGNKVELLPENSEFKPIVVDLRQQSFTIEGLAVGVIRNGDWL
Experiment: yeast two-hybrid, growth on SD-leu-trp-his and β-galactosidase membrane assay
Description: Two transformants from each transformation were investigated for the presence of protein—protein interactions by testing the ability of the yeast cells to grow on SD-leu-trp, SD-leu-trp-his, SD-leu+CAN and SD-trp+CHX plates and by the β-galactosidase membrane assay (Breeden and Nasmyth, 1985). […] After selection of the yeast strains harboring the different combinations of the two-hybrid plasmids on SD-leu+CAN and SD-trp+CHX the resulting strains were also analyzed by the β-galactosidase assay. After incubating the membrane containing all three strains on SD-trp+CHX medium only progeny of the yeast strain that originally harbored both the plasmids pBTM117c-HIP1 & pGAD427 yet which had lost the pGAD427 plasmid through counterselection turned blue after incubating in X-Gal solution. […] In comparison, the yeast strain harboring both the plasmids pBTM117c-SIM1 & pGAD427-ARNT is a positive clone that expresses interacting LexA and GAL4ad fusion proteins, because both the LexA and the Gal4ad fusion proteins are necessary for the activation of the reporter genes. […] With the membranes from the SD-leu+CAN plate false positive clones expressing an auto-activating GAL4ad-LexA fusion protein were also detected by the β-galactosidase assay.

binding result: no binding
B1: GAL4ad expressed from pGAD427 (other, yeast, UniProt P04386 768-881, looked up)
chain: ANFNQSGNIADSSLSFTFTNSSNGPNLITTQTNSQALSQPIASSNVHDNFMNNEITASKIDDGNNSKPLSPGWTDQTAYNAFGITTGMFNTTTMDDVYNYLFDDEDTPPNPKKE
notes: range 768-881; also called strain y1α
